Data from US20230002480A1.

Assays:
Assay in all cases: cell-based or functional assay
[1] = target: HIV-1 Env of pseudovirus HIV-16055-2.3 (HIV-1)
[2] = target: HIV-1 Env of pseudovirus Du172.17 (HIV-1)
[3] = target: HIV-1 Env of pseudovirus CNE30 (HIV-1)
[4] = target: HIV-1 Env of pseudovirus CNE58 (HIV-1)
[5] = target: HIV-1 Env of pseudovirus ZM53M.PB12 (HIV-1)
[6] = target: HIV-1 Env of pseudovirus SC05_8C11_2344 (HIV-1)
[7] = target: HIV-1 Env of pseudovirus ZM197M.PB7 (HIV-1)
[8] = target: HIV-1 Env of pseudovirus 62357_14_D3_4589 (HIV-1)
[9] = target: HIV-1 Env of pseudovirus SC422661.8 (HIV-1)
[10] = target: HIV-1 Env of pseudovirus Ce1086_B2 (HIV-1)
[11] = target: HIV-1 Env of pseudovirus ZM233M.PB6 (HIV-1)
[12] = target: HIV-1 Env of pseudovirus ZM214M.PL15 (HIV-1)
[13] = target: HIV-1 Env of pseudovirus 1054_07_TC4_1499 (HIV-1)
[14] = target: HIV-1 Env of pseudovirus Ce0682_E4 (HIV-1)
[15] = target: HIV-1 Env of pseudovirus CNE20 (HIV-1)
[16] = target: HIV-1 Env of pseudovirus 0260.v5.c36 (HIV-1)
[17] = target: HIV-1 Env of pseudovirus Ce704809221_1B3 (HIV-1)
[18] = target: HIV-1 Env of pseudovirus Ce0393_C3 (HIV-1)
[19] = target: HIV-1 Env of pseudovirus Ce1176_A3 (HIV-1)
[20] = target: HIV-1 Env of pseudovirus ZM109F.PB4 (HIV-1)

## 10E8 (antibody)
[1]
  IC50, titer in TZM.bl cells: 0.722 mg/L
  IC80, titer in TZM.bl cells: 6.5 mg/L
[2]
  IC50, titer in TZM.bl cells: 0.109 mg/L
  IC80, titer in TZM.bl cells: 0.837 mg/L
[3]
  IC50, titer in TZM.bl cells: 1.56 mg/L
  IC80, titer in TZM.bl cells: 9.84 mg/L
[4]
  IC50, titer in TZM.bl cells: 1.29 mg/L
  IC80, titer in TZM.bl cells: 8.27 mg/L
[5]
  IC50, titer in TZM.bl cells: 3.98 mg/L
  IC80, titer in TZM.bl cells: > 10 mg/L
[6]
  IC50, titer in TZM.bl cells: 0.665 mg/L
  IC80, titer in TZM.bl cells: 2.74 mg/L
[7]
  IC50, titer in TZM.bl cells: 0.148 mg/L
  IC80, titer in TZM.bl cells: 0.802 mg/L
[8]
  IC50, titer in TZM.bl cells: 0.119 mg/L
  IC80, titer in TZM.bl cells: 1.06 mg/L
[9]
  IC50, titer in TZM.bl cells: 0.445 mg/L
  IC80, titer in TZM.bl cells: 2.71 mg/L
[10]
  IC50, titer in TZM.bl cells: 1.16 mg/L
  IC80, titer in TZM.bl cells: 6.93 mg/L
[11]
  IC50, titer in TZM.bl cells: 0.442 mg/L
  IC80, titer in TZM.bl cells: 2.39 mg/L
[12]
  IC50, titer in TZM.bl cells: 1.96 mg/L
  IC80, titer in TZM.bl cells: > 10 mg/L
[13]
  IC50, titer in TZM.bl cells: 0.046 mg/L
  IC80, titer in TZM.bl cells: 0.305 mg/L
[14]
  IC50, titer in TZM.bl cells: 1.22 mg/L
  IC80, titer in TZM.bl cells: 7.71 mg/L
[15]
  IC50, titer in TZM.bl cells: 1.25 mg/L
  IC80, titer in TZM.bl cells: 6.58 mg/L
[16]
  IC50, titer in TZM.bl cells: > 10 mg/L
  IC80, titer in TZM.bl cells: > 10 mg/L
[17]
  IC50, titer in TZM.bl cells: 0.058 mg/L
  IC80, titer in TZM.bl cells: 0.319 mg/L
[18]
  IC50, titer in TZM.bl cells: 1.18 mg/L
  IC80, titer in TZM.bl cells: 7.42 mg/L
[19]
  IC50, titer in TZM.bl cells: 0.867 mg/L
  IC80, titer in TZM.bl cells: 3.92 mg/L
[20]
  IC50, titer in TZM.bl cells: 0.295 mg/L
  IC80, titer in TZM.bl cells: 1.89 mg/L

## N49P19 (antibody)
[1]
  IC50: > 50 mg/L
  IC80: > 50 mg/L
  MPI: 30
[2]
  IC50: > 50 mg/L
  IC80: > 50 mg/L
  MPI: 30
[3]
  IC50: 1.27 mg/L
  IC80: 4.28 mg/L
  MPI: 100
[4]
  IC50: > 50 mg/L
  IC80: > 50 mg/L
  MPI: 43
[5]
  IC50: 1.19 mg/L
  IC80: 4.14 mg/L
  MPI: 100
[6]
  IC50: 0.954 mg/L
  IC80: 3.3 mg/L
  MPI: 100
[7]
  IC50: 38.4 mg/L
  IC80: > 50 mg/L
  MPI: 56
[8]
  IC50: 37.4 mg/L
  IC80: > 50 mg/L
  MPI: 51
[9]
  IC50: 0.425 mg/L
  IC80: 1.42 mg/L
  MPI: 100
[10]
  IC50: 0.613 mg/L
  IC80: 2.68 mg/L
  MPI: 97
[11]
  IC50: > 50 mg/L
  IC80: > 50 mg/L
  MPI: 4
[12]
  IC50: 1.85 mg/L
  IC80: 14.8 mg/L
  MPI: 98
[13]
  IC50: 2.85 mg/L
  IC80: 11.7 mg/L
  MPI: 99
[14]
  IC50: 0.607 mg/L
  IC80: 2.32 mg/L
  MPI: 98
[15]
  IC50: 0.124 mg/L
  IC80: 0.817 mg/L
  MPI: 99
[17]
  IC50: 3.75 mg/L
  IC80: 19.2 mg/L
  MPI: 93
[18]
  IC50: > 50 mg/L
  IC80: > 50 mg/L
  MPI: 31
[19]
  IC50: 1.57 mg/L
  IC80: 9.84 mg/L
  MPI: 99
[20]
  IC50: 0.282 mg/L
  IC80: 2.66 mg/L
  MPI: 92

## N49P9.1 (antibody)
[1]
  IC50: 0.102 mg/L
  IC80: 0.362 mg/L
  MPI: 100
[2]
  IC50: 0.026 mg/L
  IC80: 0.182 mg/L
  MPI: 100
[3]
  IC50: 0.271 mg/L
  IC80: 0.971 mg/L
  MPI: 100
[4]
  IC50: 0.027 mg/L
  IC80: 0.074 mg/L
  MPI: 100
[5]
  IC50: 0.447 mg/L
  IC80: 1.29 mg/L
  MPI: 100
[6]
  IC50: 1.3 mg/L
  IC80: 4.39 mg/L
  MPI: 100
[7]
  IC50: 0.049 mg/L
  IC80: 0.283 mg/L
  MPI: 100
[8]
  IC50: 0.227 mg/L
  IC80: 1.09 mg/L
  MPI: 99
[9]
  IC50: 0.127 mg/L
  IC80: 0.468 mg/L
  MPI: 100
[10]
  IC50: 0.814 mg/L
  IC80: 4.08 mg/L
  MPI: 96
[11]
  IC50: > 50 mg/L
  IC80: > 50 mg/L
  MPI: 6
[12]
  IC50: 0.561 mg/L
  IC80: 2.96 mg/L
  MPI: 100
[13]
  IC50: 1.8 mg/L
  IC80: 7.2 mg/L
  MPI: 100
[14]
  IC50: 0.076 mg/L
  IC80: 0.264 mg/L
  MPI: 100
[15]
  IC50: 1.51 mg/L
  IC80: 16.4 mg/L
  MPI: 90
[17]
  IC50: 0.162 mg/L
  IC80: 0.661 mg/L
  MPI: 100
[18]
  IC50: 0.284 mg/L
  IC80: 1.22 mg/L
  MPI: 100
[19]
  IC50: 0.44 mg/L
  IC80: 0.998 mg/L
  MPI: 100
[20]
  IC50: 0.116 mg/L
  IC80: 0.497 mg/L
  MPI: 95
